# Results published in patent publication US20120021988A1, “METHODS FOR TREATING IMMUNE THROMBOCYTOPENIA” (priority 2007, published 2012).
# How the values were obtained:
# FcγIIa (R131 allele) = FcγIIa (R131 allele) (UniProt P12318); experiment: reverse ELISA, PAP on FcγIIa (R131 allele)-coated plate without competitor
# FcγI = FcγI (UniProt P12314); experiment: reverse ELISA (repeat), PAP on Fcγ1-coated plate without competitor
# FcγIIIa = FcγIIIa (UniProt P08637); experiment: reverse ELISA, PAP on FcγIIIa-coated plate without competitor
# [1] = target: human C1q (Quidel Corp.) (human) (UniProt P02745); experiment: reverse ELISA, PAP on C1q-coated plate without competitor
# FcγIIb [2] = target: FcγIIb (UniProt P31994); experiment: reverse ELISA, PAP on FcγIIb-coated plate without competitor
# FcγIIb [3] = target: FcγIIb (UniProt P31994); experiment: reverse ELISA (repeat), PAP on FcγIIb/c-coated plate without competitor
# FCγIIIb (NA2) = FCγIIIb (NA2) (UniProt O75015); experiment: reverse ELISA (repeat), PAP on FcγIIIb (NA2)-coated plate without competitor
# [4] = target: FcγIIa (His 131 allele aka H161) (UniProt P12318); experiment: reverse ELISA (repeat), PAP on FcγIIa (H131 allele)-coated plate without competitor
# [5] = target: PAP complex: preformed immune complex of peroxidase and rabbit anti-peroxidase IgG (horseradish) (UniProt P00433); experiment: reverse ELISA competition: PAP pre-incubated with peptide, then on C1q-coated plate; signal is PAP left bound to immobilised human C1q (lower = more inhibition)
# [6] = target: PAP complex: preformed immune complex of peroxidase and rabbit anti-peroxidase IgG (horseradish) (UniProt P00433); experiment: reverse ELISA competition (repeat): inhibition by the peptide of PAP binding to immobilised FcγIIa (H131 allele)
# [7] = target: PAP complex: preformed immune complex of peroxidase and rabbit anti-peroxidase IgG (horseradish) (UniProt P00433); experiment: reverse ELISA competition: PAP pre-incubated with peptide, then on plate coated with FcγIIa (R131 allele); signal is PAP left bound to the receptor
# [8] = target: PAP complex: preformed immune complex of peroxidase and rabbit anti-peroxidase IgG (horseradish) (UniProt P00433); experiment: reverse ELISA competition (repeat): PAP pre-incubated with peptide, then on plate coated with FcγIIa (H131 allele); signal is PAP left bound to the receptor
# [9] = target: PAP complex: preformed immune complex of peroxidase and rabbit anti-peroxidase IgG (horseradish) (UniProt P00433); experiment: reverse ELISA competition (repeat): PAP pre-incubated with peptide, then on plate coated with Fcγ1; signal is PAP left bound to the receptor
# [10] = target: PAP complex: preformed immune complex of peroxidase and rabbit anti-peroxidase IgG (horseradish) (UniProt P00433); experiment: reverse ELISA competition (repeat): inhibition by the peptide of PAP binding to immobilised Fcγ1
# [11] = target: PAP complex: preformed immune complex of peroxidase and rabbit anti-peroxidase IgG (horseradish) (UniProt P00433); experiment: reverse ELISA competition (repeat): PAP pre-incubated with peptide, then on plate coated with FcγIIb/c; signal is PAP left bound to the receptor
# [12] = target: PAP complex: preformed immune complex of peroxidase and rabbit anti-peroxidase IgG (horseradish) (UniProt P00433); experiment: reverse ELISA competition (repeat): inhibition by the peptide of PAP binding to immobilised FcγIIb/c
# [13] = target: PAP complex: preformed immune complex of peroxidase and rabbit anti-peroxidase IgG (horseradish) (UniProt P00433); experiment: reverse ELISA competition: PAP pre-incubated with peptide, then on plate coated with FcγIIb; signal is PAP left bound to the receptor
# [14] = target: PAP complex: preformed immune complex of peroxidase and rabbit anti-peroxidase IgG (horseradish) (UniProt P00433); experiment: reverse ELISA competition (repeat): inhibition by the peptide of PAP binding to immobilised FcγIIIb (NA2)
# [15] = target: PAP complex: preformed immune complex of peroxidase and rabbit anti-peroxidase IgG (horseradish) (UniProt P00433); experiment: reverse ELISA competition: PAP pre-incubated with peptide, then on plate coated with FcγIIIa; signal is PAP left bound to the receptor
# [16] = target: PAP complex: preformed immune complex of peroxidase and rabbit anti-peroxidase IgG (horseradish) (UniProt P00433); experiment: reverse ELISA competition (repeat): PAP pre-incubated with peptide, then on plate coated with FcγIIIb (NA2); signal is PAP left bound to the receptor
# UniProt P31994, sequence (P31994 46-217 limits assumed): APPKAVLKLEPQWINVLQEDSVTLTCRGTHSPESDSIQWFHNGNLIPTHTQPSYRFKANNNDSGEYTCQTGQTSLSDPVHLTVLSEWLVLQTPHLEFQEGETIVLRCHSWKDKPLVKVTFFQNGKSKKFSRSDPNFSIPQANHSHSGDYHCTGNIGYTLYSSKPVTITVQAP
# UniProt P12314, sequence (P12314 16-288 limits assumed): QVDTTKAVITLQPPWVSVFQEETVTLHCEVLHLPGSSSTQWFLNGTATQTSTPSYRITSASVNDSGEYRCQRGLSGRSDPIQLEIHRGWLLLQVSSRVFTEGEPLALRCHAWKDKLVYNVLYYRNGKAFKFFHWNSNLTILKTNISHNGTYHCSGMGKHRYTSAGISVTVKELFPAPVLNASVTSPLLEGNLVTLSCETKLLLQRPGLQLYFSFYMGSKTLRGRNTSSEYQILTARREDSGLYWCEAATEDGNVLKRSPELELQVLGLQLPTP
# UniProt P02745, sequence (P02745 23-245 limits assumed, chain 1 of 3): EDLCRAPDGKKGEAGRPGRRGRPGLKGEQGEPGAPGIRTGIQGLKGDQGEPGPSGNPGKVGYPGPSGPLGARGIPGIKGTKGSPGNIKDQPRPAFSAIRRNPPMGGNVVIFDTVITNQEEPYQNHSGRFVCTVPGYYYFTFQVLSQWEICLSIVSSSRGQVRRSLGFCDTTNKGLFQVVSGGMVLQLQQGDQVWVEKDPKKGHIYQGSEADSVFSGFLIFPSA
# UniProt P02745, sequence (P02746 28-253 limits assumed, chain 2 of 3, further chain): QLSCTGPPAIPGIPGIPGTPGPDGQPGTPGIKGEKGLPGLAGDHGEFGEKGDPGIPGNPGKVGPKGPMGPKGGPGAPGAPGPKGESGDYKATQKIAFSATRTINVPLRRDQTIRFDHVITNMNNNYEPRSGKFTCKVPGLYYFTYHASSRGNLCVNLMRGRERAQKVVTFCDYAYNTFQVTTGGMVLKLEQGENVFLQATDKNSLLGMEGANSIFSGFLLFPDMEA
# UniProt P02745, sequence (P02747 29-245 limits assumed, chain 3 of 3, further chain): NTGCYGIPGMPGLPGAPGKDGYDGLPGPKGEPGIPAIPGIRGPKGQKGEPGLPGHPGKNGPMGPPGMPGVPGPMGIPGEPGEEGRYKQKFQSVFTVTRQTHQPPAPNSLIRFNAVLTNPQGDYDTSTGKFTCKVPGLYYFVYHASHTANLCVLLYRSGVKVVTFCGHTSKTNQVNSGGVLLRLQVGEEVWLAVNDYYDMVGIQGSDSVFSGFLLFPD
# UniProt O75015, sequence (O75015 17-200 N65S limits assumed): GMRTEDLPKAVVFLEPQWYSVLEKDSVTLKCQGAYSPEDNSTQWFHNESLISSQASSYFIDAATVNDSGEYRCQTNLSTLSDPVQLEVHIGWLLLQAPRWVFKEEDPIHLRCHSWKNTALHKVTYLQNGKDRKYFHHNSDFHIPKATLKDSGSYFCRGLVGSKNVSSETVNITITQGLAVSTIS
# UniProt P08637, sequence (P08637 17-208 limits assumed): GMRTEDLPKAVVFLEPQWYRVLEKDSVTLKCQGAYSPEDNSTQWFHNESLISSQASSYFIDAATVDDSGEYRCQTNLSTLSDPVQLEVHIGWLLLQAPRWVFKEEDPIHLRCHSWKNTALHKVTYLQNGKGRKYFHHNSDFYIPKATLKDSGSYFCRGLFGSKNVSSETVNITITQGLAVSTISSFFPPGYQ
molecule,measurement,setting,value
PAP complex: preformed immune complex of peroxidase and rabbit anti-peroxidase IgG (from UniProt P00433 31-338),OD405,FcγIIa (R131 allele),1.6 OD405
same,OD 405 nm,FcγI,2.33 OD 405 nm
same,OD405,FcγIIIa,1.59 OD405
same,OD 405 nm,[1],2.35 OD 405 nm
same,OD405,FcγIIb [2],1.39 OD405
same,OD 405 nm,FcγIIb [3],2.22 OD 405 nm
same,OD 405 nm,FCγIIIb (NA2),3.06 OD 405 nm
same,OD 405 nm,[4],3.51 OD 405 nm
APPDCAWHLGELVWCT [Peptide … (SEQ ID NO:20)],OD 405 nm,[5],0.389 OD 405 nm
same,% inhibition of IC binding,[6],94%
same,OD405,[7],0.509 OD405
same,OD 405 nm,[8],0.209 OD 405 nm
same,OD 405 nm,[9],0.264 OD 405 nm
same,% inhibition of IC binding,[10],89%
same,OD 405 nm,[11],0.266 OD 405 nm
same,% inhibition of IC binding,[12],88%
same,OD405,[13],0.496 OD405
same,% inhibition of IC binding,[14],91%
same,OD405,[15],0.67 OD405
same,OD 405 nm,[16],0.266 OD 405 nm
